# Measured values from patent US20050202010A1, “Method of treatment and bioassay involving macrophage migration inhibitory factor (MIF) as cardiac-derived myocardial depressant factor” (priority 2003, published 2005).
# “And” between values parts separate entries of the source, which are not always exact repeats. Equal entries are not always repeated.
# B1: rMIF: recombinant human macrophage migration inhibitory factor added to the heart perfusate at 20 ng/ml (protein, UniProt P14174 2-115, looked up)
# Macrophage migration …: PMFIVNTNVPRASVPDGFLSELTQQLAQATGKPPQYIAVHVVPDQLMAFGGSSEPCALCSLHSIGKIGGAQNRSYSKLLCGLLAERLRISPDRVYINYYDMNAANVGWNNSTFA
# Test system: C57BL/6 hearts
# Experiment: Langendorff, rhMIF added to perfusate, C57BL/6 hearts
# Parameters: species or system mouse; LVP / TPP / RT90 / Max + d / Max − d: unit not given beside the values
# [1] = C57BL/6 + rhMIF in perfusate, n = 3
# [2] = C57BL/6 + rhMIF, single hearts by date and mean (x), n 3
# [3] = C57BL/6 + rhMIF, single hearts by date and mean (x), n 3, mean
molecule,measurement,setting,value
B1,Coronay Perfusion Pressue,[1],86.0 ± 23 mmHg
same,Coronay Vascular Resistance,[1],57.3 ± 7.7 mmHg
same,Heart Rate,[1],318 ± 2 bpm
same,Left Ventricular Pressure,[1],52.7 ± 6.6 mmHg
same,Time to 90% Relaxation,[1],73.3 ± 4.4 ms
same,Time to Max +dP/dt,[1],47.0 ± 2.1 ms
same,Time to Max −dP/dt,[1],49.0 ± 1.5 ms
same,Time to Peak Pressue,[1],74.0 ± 3.1 ms
same,dP40,[1],1200 ± 115 mmHg/sec
same,−dP/dt max,[1],1233 ± 159 mmHg/sec
same,+dP/dt,[2],1650 and 1100
same,DR,[2],1.1 and 1.158 and 1.2
same,HR,[2],320 and 315
same,LVP,[2],62 and 40 and 56
same,Max + d,[2],48 and 50 and 43
same,Max − d,[2],52 and 48 and 47
same,RT90,[2],80 and 75 and 65
same,TPP,[2],72 and 80 and 70
same,dP40,[2],1400 and 1000 and 1200
same,−dP/dt,[2],950 and 1250
same,DR,[3],1.153
same,HR,[3],318.3333
same,LVP,[3],52.67
same,Max + d,[3],47
same,Max − d,[3],49
same,RT90,[3],73.33
same,TPP,[3],74
same,−dP/dt,[3],1233.333
